From PMC10703496

Target: 6×His-tagged receptor-binding domain (RBD) of SARS-CoV-2 spike, B.1.617.2 (Delta) (SARS-CoV-2) (UniProt P0DTC2)
Experiment: SPR

Substance | Kd | koff | kon
ACE2(18–615)-QMP: monomeric ACE2 peptidase domain (residues 18–615) fused to the N-terminal end of QMP human albumin (from UniProt Q9BYF1-1;P02768) | 80.3 nM | 0.0258 s⁻¹ | 321000 M⁻¹ s⁻¹
ACE2(18–615)-WT: monomeric ACE2 peptidase domain (residues 18–615) fused to the N-terminal end of fu (from UniProt Q9BYF1-1;P02768) | 175 nM | 0.0083 s⁻¹ | 47000 M⁻¹ s⁻¹
ACE2(18–740)-QMP: truncated dimeric human ACE2 (residues 18–740) fused to the N-terminal end of engi (from UniProt Q9BYF1-1;P02768) | 2 nM | 0.00024 s⁻¹ | 119000 M⁻¹ s⁻¹
ACE2(18–740)-WT: truncated dimeric human ACE2 (residues 18–740) fused to the N-terminal end of full- (from UniProt Q9BYF1-1;P02768) | 1.3 nM | 0.00021 s⁻¹ | 159000 M⁻¹ s⁻¹
ACE2-YTY-QMP: dimeric ACE2 with T27Y/L79T/N330Y (YTY) fused to QMP albumin (from UniProt Q9BYF1-1;P02768) | 0.2 nM | 4e-05 s⁻¹ | 201000 M⁻¹ s⁻¹
